Patent US20100095387A1, “METHODS AND REAGENTS FOR SCREENING NEW DRUGS AND FOR TREATING ION PUMP ASSOCIATED DISORDERS AND DISEASES” (priority 2005, published 2010)
“Also recorded” adds a separate entry of the source.

How the values were obtained:
[1] = system: cultured cortical neurons; assay: Firing properties of cultured cortical neurons in normal external solution; assay type: cell-based, mouse; conditions: co-incubation with C-Ag15
chick skeletal myotubes = assay: Fos expression in chick muscle cultures; assay type: cell-based; conditions: 1 nM C-Ag15 with 50 pM C-Ag95z8
Experimental: Chick muscle cultures were prepared from pectoral muscles of 10-11-d-old White Leghorn chick embryos as described previously (Hilgenberg et al., 1999). Experiments were performed on 4-6-d-old cultures.
Fos expression in cortical cultures was measured by in situ enzyme-linked immunoassay (Hilgenberg et al., 1999). In brief, 11-14-d-old neuronal cultures were treated for 10 min with agrin or other agent diluted in NBM or PBS, then washed in cNBM and returned to the incubator for 2 h. Cultures were rinsed in PBS, fixed in ice cold 4% PFA, and blocked in PBS containing 0.1% Triton X-100 and 4% BSA (PBSTB) before being incubated in a primary rabbit antibody against Fos (Ab-2; Oncogene Research Products) and secondary goat antibody against […] conjugated to alkaline phosphatase (Southern Biotechnology Associates, Inc.). The level of Fos expression was determined by monitoring conversion of p-nitrophenyl phosphate to a soluble yellow reaction product at 405 nm.
To learn whether inhibition of agrin signaling by C-Ag15 might extend to other neurons or even muscle, mouse hippocampal and cerebellar neurons or chick skeletal myotubes were incubated with 50 pM C-Ag95z8 alone or in the presence of 1 nM C-Ag15, a concentration that blocks activity in cortical neurons. […] However, co-incubation with C-Ag15 inhibited Fos expression in the neurons, but had no effect on muscle. […]

cardiac myocytes = assay: Ca2+ (Fura-2) and Na+ imaging of cultured cardiac myocytes; conditions: 10 fold excess of C-Ag15
cortical neurons = assay: c-fos induction, Fos in situ enzyme-linked immunoassay in cortical cultures; assay type: cell-based, mouse; conditions: C-AgΔ20 at 50 pM or 5 nM; C-Ag15 up to fivefold above saturation for C-Ag20z0/8
Experimental: Mouse cortical cultures were prepared from newborn or 1-d-old ICR strain mice (Harlan) as described previously (Hilgenberg et al., 1999). For the first 24 h after plating, cells were maintained in neural basal medium (NBM) plus B27 supplements (Invitrogen), and in nonneuronal cell-conditioned NBM (cNBM) plus B27 thereafter, at 37° C. in humidified 5% CO2 atmosphere. To further reduce proliferation of nonneuronal cells, cultures on glass coverslips used for histology were treated with 5 μM 5-fluoro-2-deoxyuridine (Sigma-Aldrich) 3-4 d after plating. Hippocampal and cerebellar cultures were prepared in a similar manner. Experiments were performed on 10-14-d-old cultures. Agrin-deficient neuron cultures were prepared from cortices of embryonic d 18-19 fetuses resulting from matings between mice heterozygous for a mutation in the agrin gene (Gautam et al., 1996). Cultures were prepared and genotyped as described previously (Li et al., 1999), and were maintained as above.
Fos expression in cortical cultures was measured by in situ enzyme-linked immunoassay (Hilgenberg et al., 1999). In brief, 11-14-d-old neuronal cultures were treated for 10 min with agrin or other agent diluted in NBM or PBS, then washed in cNBM and returned to the incubator for 2 h. […] The level of Fos expression was determined by monitoring conversion of p-nitrophenyl phosphate to a soluble yellow reaction product at 405 nm.

[2] = biological target: T1, α3 subunit of the Na+/K+-ATPase (Mus musculus, UniProt Q6PIC6); assay: Chemical cross-linking of agrin fragments to cortical neurons, immunoprecipitation and immunoblot; assay type: binding
T1 construct: a 110 kDa band characteristic of the native α3Na+/K+-ATPase; endogenous in cells; host or cells: primary mouse cortical neurons, 10-16 days in culture
Experimental: Membrane impermeant chemical cross-linking agents BS^3 and DMA were used to stabilize the bond between agrin and its binding sites on cell surface membranes. Cultured neurons were washed briefly in PBS containing 10 mM EDTA followed by preincubation with one or more agrin fragment in PBS^2+ for 30 minutes at room temperature and then cooled on ice prior to addition of a 10× solution of cross-linking agent to a final concentration of 0.1 mM. The cross-linking reaction was allowed to proceed for 30 minutes after which any unreacted cross-linker was quenched and removed by washing with ice cold PBS^2+ containing 50 mM ethanolamine. For immunoblot analysis, cells were scraped into ice-cold TI buffer (20 mM Tris, pH 7.4; 10 mM EDTA; protease inhibitors (Sigma, P8340)) then Dounce homogenized and membrane fraction recovered by centrifugation. For the immunoprecipitation studies, cells were scraped and homogenized in TI buffer containing 150 mM NaCl and 0.5% Triton X-100. Cell extracts were cleared by centrifugation and aliquots of the detergent soluble fraction incubated with the appropriate antibody at 4° C. overnight. Antigen-antibody complexes were precipitated with either protein A or protein G and resuspended in SDS-PAGE sample buffer for immunoblot analysis.
Ligand induced phosphorylation is a common first step in membrane receptor activation and inhibition of tyrosine kinase activity blocks agrin signalling in central nervous system neurons. To determine if agrin induced phosphorylation of the putative agrin receptor, membranes from neurons cross-linked to C-Ag208 or C-Ag15, alone or in combination, were dissolved, in a detergent-containing buffer and aliquots immunoprecipitated with RAg1 or the phosphotyrosine antibody mAb4G10 (Upstate). Immunoprecipitated proteins were analyzed by immunoblotting with a monoclonal antibody (9E10.2, Invitrogen) against the COON-terminal myc tag on the agrin fragments.
To confirm the results of the mass spectrometry the ability of different α-subunit antibodies to recognize the putative agrin-Na^+/K^+-ATPase complex was tested. […]

chick myotubes = assay: AChR clustering assay; assay type: cell-based; conditions: 1 nM C-Ag15 with 50 pM C-Ag95z8 overnight

B1: C-Ag15: 15-kD COOH-terminal fragment of agrin created by deleting 37 amino acids from the NH2 terminus of C-Ag20, SEQ. ID NO. 3 (protein)
chain: MDPWIGKAAERADYMALAIVDGHLQLSYDLASQPVVLRSTVKVNTNRWLRVRAHREHREGSLQVGNEAPVTSSSPLGATQLDTDGALWLGGLQKLPVGQPLPKAYGTGFVGCLRNVVGHRQLHLLEDAVTKPELRPCPTLNSKLGPEQKLISEEDLNSAVDHHHHHH
modifications: Synthetically produced sequence
B1 was tested, and the “effect on depolarization and action potential increase induced by C-Ag20 isoforms” value [1] was “blocked”, the “effect on C-Ag95z8-induced Fos expression” value (chick skeletal myotubes) was “no effect” and the “antagonism of C-Ag208 response” value (cardiac myocytes) was “effective agrin antagonist; also recorded: effectively blocks”. The “effect of fragment alone on Fos expression” value (cortical neurons) was “no effect”, the “effect on C-Ag208 binding and phosphorylation” value ([2]; cross-linked in combination with C-Ag208) was “blocking both binding and phosphorylation” and the “tyrosine phosphorylation of the cross-linked complex” value ([2]; immunoprecipitation with phosphotyrosine antibody mAb4G10) was “did not induce phosphorylation”. The “effect on AChR clustering activity of C-Ag95z8” value (chick myotubes) was “no effect”.
